Laboratory results as given in patent publication US7999089, “RNA aptamers and the uses thereof” (Industry-Academic Cooperation Foundation, Dankook University).

Experiments:
TCF-1 C200 (HMG domain) [1] = molecular target: T1, TCF-1 C200 (HMG domain) (Mus musculus, UniProt Q00417 Q00417:188-388); assay: competition; excess unlabelled RNA did not compete with #10; text partly contradictory; details: tags: GST fusion, pGEX 4T-1
TCF-1 C200 (HMG domain) [2] = molecular target: T1, TCF-1 C200 (HMG domain); assay: competition; excess unlabelled RNA did not compete with #10; details: tags: GST fusion, pGEX 4T-1
[3] = molecular target: GST-β-catenin, full length (UniProt P35222 P35222:1-781); assay: EMSA; stated as binding affinity for full length β-catenin; details: tags: GST fusion, E. coli; label: 32P (radiolabelled)
Procedure: After 8 cycles of SELEX selection, the selected sequences were digested with EcoRI and BamHI, followed by cloning into pUC19 to prepare pUC19-aptamer. To test for RNA binding, the RNA was radiolabeled as described previously (Kim & Jeong, Biochem. Biophys. Res. Commun 320:1181-1186, 2004), incubated with GST-β catenin and assayed by GST pull-down (Kim & Jeong, Biochem. Biophys. Res. Commun 320:1181-1186, 2004) or RNA-EMSA (RNA-Electrophoretic Mobility-Shift Assay) (Kim & Jeong, Biochem. Biophys. Res. Commun 320:1181-1186, 2004).

GST = GST (UniProt P08515 P08515:1-218); assay: EMSA; specificity control; details: chain copies: 2; label: 32P (radiolabelled)
TCF-1 (full length) = TCF-1 (full length) (Mus musculus, UniProt Q00417 Q00417:5-388); assay: EMSA; specificity control; details: tags: GST fusion, pGEX 4T-1; label: 32P (radiolabelled)
HuR = HuR (UniProt Q15717 Q15717:1-326); assay: EMSA; specificity control; details: label: 32P (radiolabelled)
TCF-1 C200 (HMG domain) [4] = molecular target: T1, TCF-1 C200 (HMG domain); assay: EMSA; details: tags: GST fusion, pGEX 4T-1; label: 32P 5'-end

T1 sequence (Q00417 188-388, one chain of several): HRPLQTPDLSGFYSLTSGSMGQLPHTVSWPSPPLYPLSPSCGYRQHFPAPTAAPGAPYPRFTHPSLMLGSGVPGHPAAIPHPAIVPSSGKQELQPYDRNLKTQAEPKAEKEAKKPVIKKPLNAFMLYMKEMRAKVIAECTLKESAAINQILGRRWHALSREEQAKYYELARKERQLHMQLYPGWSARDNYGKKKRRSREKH
GST-β-catenin, full length, sequence (P35222 whole entry, the tested form may be a part, one chain of several): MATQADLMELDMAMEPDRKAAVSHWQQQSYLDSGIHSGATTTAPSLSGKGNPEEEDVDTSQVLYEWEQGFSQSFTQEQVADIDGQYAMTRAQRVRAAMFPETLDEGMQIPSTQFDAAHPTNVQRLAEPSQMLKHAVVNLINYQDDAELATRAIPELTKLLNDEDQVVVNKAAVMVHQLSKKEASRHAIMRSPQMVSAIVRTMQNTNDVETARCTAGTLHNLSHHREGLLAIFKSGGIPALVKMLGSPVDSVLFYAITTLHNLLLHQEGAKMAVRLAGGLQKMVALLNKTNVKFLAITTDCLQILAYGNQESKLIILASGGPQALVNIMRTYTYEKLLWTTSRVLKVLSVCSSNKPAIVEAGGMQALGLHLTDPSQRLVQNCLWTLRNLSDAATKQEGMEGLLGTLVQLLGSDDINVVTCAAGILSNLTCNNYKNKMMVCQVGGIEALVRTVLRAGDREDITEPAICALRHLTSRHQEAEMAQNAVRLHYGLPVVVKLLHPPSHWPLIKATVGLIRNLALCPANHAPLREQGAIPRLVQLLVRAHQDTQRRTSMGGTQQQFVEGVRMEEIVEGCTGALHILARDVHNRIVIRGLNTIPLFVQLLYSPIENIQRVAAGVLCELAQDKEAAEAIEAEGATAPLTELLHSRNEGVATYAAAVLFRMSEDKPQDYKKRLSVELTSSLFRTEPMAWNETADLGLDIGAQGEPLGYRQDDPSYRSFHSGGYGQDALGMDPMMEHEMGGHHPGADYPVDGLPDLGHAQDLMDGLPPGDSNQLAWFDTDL
HuR, sequence (Q15717 whole entry, the tested form may be a part, one chain of several): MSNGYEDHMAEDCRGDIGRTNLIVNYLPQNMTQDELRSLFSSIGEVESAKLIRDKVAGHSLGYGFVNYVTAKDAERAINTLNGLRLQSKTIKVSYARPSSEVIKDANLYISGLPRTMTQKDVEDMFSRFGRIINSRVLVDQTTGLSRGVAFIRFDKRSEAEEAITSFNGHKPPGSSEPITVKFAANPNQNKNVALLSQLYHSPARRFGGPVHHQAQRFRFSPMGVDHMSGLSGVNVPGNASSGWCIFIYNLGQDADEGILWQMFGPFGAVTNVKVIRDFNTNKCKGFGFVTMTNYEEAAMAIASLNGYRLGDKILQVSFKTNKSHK
TCF-1 (full length), sequence (Q00417 5-388, one chain of several): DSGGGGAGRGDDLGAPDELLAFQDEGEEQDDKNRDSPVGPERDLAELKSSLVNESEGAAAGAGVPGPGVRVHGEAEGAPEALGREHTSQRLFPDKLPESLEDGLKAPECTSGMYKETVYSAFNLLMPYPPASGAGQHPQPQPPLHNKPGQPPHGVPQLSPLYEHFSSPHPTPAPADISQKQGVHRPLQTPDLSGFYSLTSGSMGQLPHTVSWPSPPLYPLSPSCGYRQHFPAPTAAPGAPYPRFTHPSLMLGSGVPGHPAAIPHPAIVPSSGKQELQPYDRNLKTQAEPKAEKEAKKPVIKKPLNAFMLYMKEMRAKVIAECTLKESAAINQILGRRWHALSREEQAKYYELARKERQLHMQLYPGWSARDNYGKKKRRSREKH
GST, sequence (P08515 whole entry, the tested form may be a part, one chain of several): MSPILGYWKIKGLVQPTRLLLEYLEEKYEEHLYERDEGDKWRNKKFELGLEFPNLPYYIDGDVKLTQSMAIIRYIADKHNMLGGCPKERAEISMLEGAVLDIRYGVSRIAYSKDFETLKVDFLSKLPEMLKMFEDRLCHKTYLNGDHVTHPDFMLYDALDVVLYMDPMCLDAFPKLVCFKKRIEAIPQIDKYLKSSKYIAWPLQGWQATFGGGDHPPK

B1: RNA #20 (ssRNA)
RNA: UUCCCGCGGUGGAAAGCGUUGGGUAGCGGCUCCGAUGGAGAGUGGUGCGCCUUGCCUGCUGGCCUUG
Does B1 bind (TCF-1 C200 (HMG domain) [1])?
Result: no binding

B2: RNA #9 (ssRNA)
RNA: UGCUGACAAUUCUCGUGCCUCUCCAUGGUCUGCGGCUGAGAAGGUUCGCCAAGUUGUGGGCCGGGGUGC
Does B2 bind (TCF-1 C200 (HMG domain) [2])?
Result: no binding

B3: β-catenin RNA aptamer (ssRNA)
RNA: GGACGCGUGGUACCAGGCCGAUCUAUGGACGCUAUAGGCACACCGGAUACUUUAACGAUUGGCUAAGCUUCCGCGGGGAUC
B3 was tested. Which Kd [3] did it give?
Its Kd is 5 nM.

Does B3 bind (GST)?
Result: no binding

Does B3 bind (TCF-1 (full length))?
Result: no binding

Does B3 bind (HuR)?
Result: no binding

B4: TRE (TCF responsive element) (dsDNA)
DNA 1: GGTAAGATCAAAGGG
DNA 2: CCCTTTGATCTTACC
Does B4 bind (TCF-1 C200 (HMG domain) [4])?
Result: binds
